Experiment [1] has as its target T1, Human TROP-2/TACSTD2 Protein, His Tag (带有His标签的人滋养层细胞表面抗原2(Trop2)胞外段蛋白) (human, UniProt P09758 27-274).
T1 construct: extracellular domain; Bought protein; also called Trop2-His; Trop2抗原; not shown: His tag
T1 sequence (looked up): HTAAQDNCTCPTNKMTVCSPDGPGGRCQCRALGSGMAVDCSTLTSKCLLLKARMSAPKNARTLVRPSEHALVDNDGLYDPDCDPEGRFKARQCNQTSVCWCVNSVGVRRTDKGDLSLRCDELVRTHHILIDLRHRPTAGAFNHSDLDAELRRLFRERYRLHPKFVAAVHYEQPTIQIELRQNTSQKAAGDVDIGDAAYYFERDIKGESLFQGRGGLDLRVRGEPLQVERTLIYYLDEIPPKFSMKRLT
In words: phage ELISA, Trop2-His coated at 1ug/ml, anti-M13-HRP, OD450. In general terms: An ELISA detects its analyte on a solid surface through an enzyme-linked reagent.

The target in experiment [2] is Trop2 on the surface of tumour cell lines (H1975, MDA-MB-231, Bxpc3, T24, PC-9) (UniProt P09758). Nature of the experiment: flow cytometry on H1975 cells, antibody 5ug/ml, anti-Fc PE; blank cells without antibody MFI 621. (In general: Flow cytometry measures light scatter and fluorescence of single cells or particles in a stream.)
The target of experiment [3] is T1, Human TROP-2/TACSTD2 Protein, His Tag …. In words: ELISA, Trop2-His coated at 1ug/ml, antibody diluted 3.3-fold from 5ug/ml, anti-human IgG-Fc HRP.
Experiment [4] deals with Trop2 on the surface of tumour cell lines (H1975, MDA-MB-231, Bxpc3, T24, PC-9) (UniProt P09758). In words: flow cytometry on MDA-MB-231 cells, antibody 5ug/ml, anti-Fc PE; blank cells without antibody MFI 938.
For experiment [5] the target is unchanged. In words: flow cytometry on Bxpc3 cells, antibody 5ug/ml, anti-Fc PE; blank cells without antibody MFI 557.

B1: 抗Trop2阳性克隆3 (T3), scFv displayed on phage (scFv)
scFv: DIQMTQSPSTLSASVGDRVTITCRASQSISSWLAWYQQKPGKAPKLLIYKASSLESGVPPRFSGSGSGAEFTLTISSLQPDDFATYYCQQYNSYPLTFGGGTKVEVKGGGGSGGGGSGGGGSEVQLVQSGGGLVQPGGSLRLSCEDSGFTFSSYWMSWVRQAPGKGLEWVSSISSSSSYIYYADSVKGRFTISRDNAKNSLYLQMNSLRGEDTAVYYCAREQSSSGFDYWGQGTLVTVSS
notes: Tested as phage supernatant (scFv on M13 phage); also called T3单克隆; T3抗Trop2 scFv
On to B1, for which the binding result in experiment [1] is “binds”.

B2: T3单克隆抗体 (T3抗Trop2单克隆抗体) (antibody, human IgG1, kappa, V domains shown)
VH: EVQLVQSGGGLVQPGGSLRLSCEDSGFTFSSYWMSWVRQAPGKGLEWVSSISSSSSYIYYADSVKGRFTISRDNAKNSLYLQMNSLRGEDTAVYYCAREQSSSGFDYWGQGTLVTVSS
VL: DIQMTQSPSTLSASVGDRVTITCRASQSISSWLAWYQQKPGKAPKLLIYKASSLESGVPPRFSGSGSGAEFTLTISSLQPDDFATYYCQQYNSYPLTFGGGTKVEVKR
notes: also called Trop2抗体
Consider B2, for which the MFI (Median fluorescence intensity) came out at 65600 in experiment [2], 3150 in experiment [4] and 174000 in experiment [5]. Besides, in experiment [3], the binding result is “binds”.

For the origin of these results see patent publication CN116970083A (SHANGHAI UNICAR THERAPY BIO MEDICINE TECH CO LTD, dated 2023).
